The values that follow come from a protein production outcome set (Wang et al. 2014).

A short description of this data set: label from the status in PepcDB records.
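Note: failed if final PepcDB status was selected cloned or expressed and not failed if soluble or beyond.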

Consider “MLQKPVQLLLWVAICLLVLLTVYVFFMLDMLWSPFWLVIKTIFIPLIISIFISYLLLPVTEWLHGKGLPRTLSILVIYVLFFGGIGWALYKGVPVLIVQLTDLSENIPMFAETYNGLLLHVHNHTDDWPDGMHHRIDKMIRQTEAFFAGTIEGAISGIRNVLDYFLIAATIPFLVFYMVKDIELMKKTVWYLTPKSWRKRGSAFLRDVDDSLGDYIRGQLLVCLILGVIAGISFWVFGLPYPLILGLISGVTNVIPYFGPFIGAVPALLIAMTISVKAVLVVVITVFILQFMEGNILSPFIVGRSLKMHPVVIMLALLAGGELAGIVGMILAVPATAVLKVMMIHFLRMRTEH”, for which the protein production result is “not failed”.
Take “MLQMNLEELRRIQEEMSRSVVLEDLIPLEELEYVVGVDQAFISDEVVSCAVKLTFPELEVVDKAVRVEKVTFPYIPTFLMFREGEPAVNAVKGLVDDRAAIMVDGSGIAHPRRCGLATYIALKLRKPTVGITKKRLFGEMVEVEDGLWRLLDGSETIGYALKSCRRCKPIFISPGSYISPDSALELTRKCLKGYKLPEPIRIADKLTKEVKRELTPTSKLKLEHHHHHH”: the protein production result is reported as “failed”.
As to “MLQNIPTHVIGGPLGAGKTSLIKRLLAQKPAHERWAVLINEFGQIGLDAALLTTTADGIALGEVAGGCLCCVNGVPFQIGLGRLLRKARPDRLLIEPSGLGHPAQLMAQLREAPWRGVLTVQPGVMVLDAAAMATGQPLPATQQEALAEAGLVVMNKSEQLDEAARQALAEQMKPCALLWTRHADLSLSRLPGFVEGTAVDKHAVDNLTLPNSIGRLPALWADPNVPICLSQTSAEGWSVGWRWHPSQQFDLQRVLHWLEGMAWRRAKVVIHSEGGWYSGNVLEGAPLAWQISEWRQDSRLELIFSAPQDVDTLQAQMAGCLA”, the protein production entry was “failed”.
On to “MLQRLFIFLLIFLILPDIYLYLRFIVHLTAKRWLRILYWLPAFLLSAGLLYLVYFSNNAFAERHTQAIGWFSIFFFLFTAPKLLLSLCTIIGVPFHKWLRWPRTPFICTGLTLAVISIVMIIYGSFIGRTQFDVKEVTYSSPKLPSAFDGYRIVQLSDIHIGSWQGNASAIQKLVKLVNEQQADLIVFTGDLVNHRAVELNDFQDILAGLKAKDGVYSILGNHDYGPYFHWKSKDEQDDNLNDLLQRQAAMGWKLLNNSHTILIQGSDSIALIGVENEGEPPFSQYADLPEAMRGTEGMFQILLSHNPTHWRREVLPQTYIDLMLAGHTHAMQLKFGNHSPSSYIYPEWSGMYLEGTRGLYVNEGIGYVGLPFRFGAWPEITVLTLRQ”, for which the protein production result is on record as “failed”.
As for “MLRHILTAKNLLSNPIFKFPNCLPFLSTVCCICRQFVGENLCSFADSPSLFEMWFHFLQLRSALNISSALRQVVHGTRWHAKRKSYKVLFWREITPLAVPIFMENACVLLMGVLSTFLVSWLGKDAMAGVGLADSFNMVIMAFFAAIDLGTTVVVAFSLGKRDRRRARVATRQSLVIMTLFAVLLATLIHHFGEQIIDFVAGDATTEVKALALTYLELTVLSYPAAAITLIGSGALRGAGNTKIPLLINGSLNILNIIISGILIYGLFSWPGLGFVGAGLGLTISRYIGAVAILWVLAIGFNPALRISLKSYFKPLNFSIIWEVMGIGIPASVESVLFTSGRLLTQMFVAGMGTSVIAGNFIAFSIAALINLPGSALGSASTIITGRRLGVGQIAQAEIQLRHVFWLSTLGLTAIAWLTAPFAGVMASFYTQDPQVKHVVVILIWLNALFMPIWSASWVLPAGFKGARDARYAMWVSMLSMWGCRVVVGYVLGIMLGWGVVGVWMGMFADWAVRAVLFYWRMVTGRWLWKYPRPEPQKCEKKPVVSE”, the protein production entry is given as “failed”.
In the case of “MLRLARKGLQTAVVRSYAKDVKFGAEGRQAMLVGVNLLADAVSVTMGPKGRNVIIEQSWGSPKITKDGVTVAKSIDLKDKYQNLGAKLIQDVANKANEEAGDGTTCATVLARAIAKEGFESIRQGGNAVEIRRGVMNAVEVVVAELKKISKKVTTPEEIAQVATISANGDTVVGNLISDAMKKVGTTGVITVKDGKTLNDELELIEGMKFDRGYISPYFITSAKGAKVEYEKALVLLSEKKISQVQDIVPALELANKLRRPLVIIAEDVDGEALTTLVLNRLKVGLQVVAIKAPGFGDNRKNTLKDMGIATGATIFGDDSNLIKIEDITANDLGEVDEVTITKDDTLLLRGRGDQTEIEKRIEHITDEIEQSTSDYEKEKLNERLAKLSKGVAVLKIGGGSEVEVGEKKDRVTDALCATRAAVEEGIVPGGGVALLRSLTALKNYKAANEDQQIGVNIVKKALTQPIATIVKNAGLEPSSIIDEVTGNSNTSYGYDALNGKFVDMFEAGIIDPTKVVRTALQDASGVASLLATTECVVTEIPKEEAVGGPAGGMGGMGGMGGMGGMGF”, the protein production result was “not failed”.
With “MLRNTSHSYGGIARALHWLCALAVIAALVFIELKGNFPKGDPLRSGLGYAHVQAGLIVLLLVLPRLAWRLGNPPPAIEPAPSPAMNLLAHAGHWALYALMLALPILGIAFIQANGREVALFGLALPAFMPNDPPLGKELKEIHELLGNVLLWLSILHAAAAVWHHRFLKDDTLTRLTGPMR” the entry was “failed”; with “MLRRSFSSYLRQGLLLAFLAAFSALWLAQAHAERRAAIVVGNSEYPFAPLTNPRNDAKLIANTLTELKFDVLLFYDVKKSAEKDLNDAIRAHLIGADMAVFYYAGHALQYNGQNLLLPVDTRISSAKEVAADAMRLNDLIDIVKNDPVGVKVFILDACRNNPVAKEKGLQQGLAYTEAGSGQVLVAFATSAGEVAYDGTGINSPYSSALANALLMPNLDVYDTFRTVRGDVRQATGGSQIPWITGSIETKFVFRQGDAGKQVAQAEHAAEADGGLTIDEVLWSFISDSQNPEDFERFVKVFPNSRYAAEATEKSRFKVAALTKRGLYVNGNLVSSSIAATAPIGASDKALSEEFVFQQAGERAVSETFRIWPSNLPDTQRGMRTMVTDCDLYAADPNDPQRAVPGVTNGLVNVRDALRACAFALAADINNPRLQFQFGRVLEIARRYSWAEHFYELAGNQQYSAALINMGYMARVGMGREIDYGRAFDPYVRAAALGNLRARTDIGSAYIAGQGVPKLPEEGVLWYRLAASSGWANAITALGDAYRLGTGVKQDYVQAASLYSAAADTGQIDAMANLGQAYLAGEGVKKDVPRGLELLQRANDMGNRYAPYFMAQLYLKGDRKLPADPRRALALLELSANRGNEYAYVRLAWGHRDGVFTGGKPDLRRAYFDASLAARLRADQGEQAKAEIAKKIDPATRKEIDGEVELYIKQNGP”, “failed”; with “MLRSSSVDRKREEEPRLSYMIARVDRIISKYLTEHLSALEISLPQFTALSVLAAKPNLSNAKLAERSFIKPQSANKILQDLLANGWIEKAPDPTHGRRILVTVTPSGLDKLNQCNQVVQQLEAQMLQGVDINLAFLIRNNLELMVKNLSTFSSLDQSKE”, “not failed”.
With “MLRVFHFYGMLRLPRSGIEQSLKGERCTVSTQIRILPENLTNKIAAGEVVERPASVVKELVENSLDAGCRDIIVEIEAGGRRLIRVTDDGSGMSREDALLSLERHATSKIASDDDLFSLCTLGFRGEALPSIASVSRFSLATRQRGAIEGTEIYAEGGRIKEVKACGMAEGTVITVRNLFFNTPARLKFMKSAETEAGHVGDLLTRLAISRPEVRFTYVNDGKTVFRALNGTMEERVAALLGRTIAGALYPLDSTVEGVTVRGLVARPDVSRSAAGHLYTFINGRFIRDRVVQHAVLQAYRNFLERGRYPVVVLFIQVPAGDVDVNVHPTKHEVRFRQQGVVHDVIQGVIEEALRPTPWLRKESQSTVSSPPPERREPATSSERVAEVRELLVNYRPSPAPSRPFFQPLPAVVPAPDQSAEEPDRPMDRGYFSRLAIIGQFHASYILCQDGSDLVIIDQHAAHERVAFERLKAQFAAGGVEGQGLLFPDTLELSHREVAELREHGEELRRIGFDLDEFGGTTWVVKGVPRLLAGKDYLRILRDTLEEFQAVGANRSVADAVEEILTRIACHSVVRGEHPLTTAQIEALFAQMDATDYSTNCPHGRPVLQRLTLAEVERMFKR” the entry was “failed”.
With “MLRVLSVGVAFILLGCQFFNKTTLHLKYKDYPKNSALKTAFTLTPPKIFFNARFVPPFYQKEFKKAITQQIAYFLKDKSAFILNVSGNVFFSFEENPKDLKAIKERLKKTIEPNADPKAVMRFLNLQASLILECVPQTTCPFDTLLIPTAFSVPVYYANRLGDNPSLFSQEDKTYHNALIKALNKAYYSLMEGLEKRLNAIKNAEWL” the entry was “failed”; with “MLRVVEVCWRESHMKVLAINSSPRMDKGNTALILNPFLEGMKEAGAEVELFYTKKLKISPCTGEFNCWLKTPGKCYQNDDMNILYPRIDAADVIVFATPVYVDGVTGQMKNFIDRMLPRVEPFVELRDGHCRHPVRGGPKALKFVLVSNCGFWEMDNFDSLLVFMKAFCKNASTEFAGALLRPHGEALSSMLEMGAPIDDVFEAAREVGRQLVKEGKMSQETLDIVSRELLPKEMYIQIANQTFRQCLESLDRLEHHHHHH”, “failed”; with “MLSANQIKFLRSLRERKYRLREQAFAVEGPKLVGEMLPFYRCRMLVGTAAMLRAVSTPHDAEVVELPESFDFKRISTQTTPQPLMAVFDLPAEPEPVVEGLTLLLDGVQDPGNVGTILRTADWFGIRHVWLGTGSADVFSPKVVQASMGALARVQPTPLKNTVDTLAYFRRQGIPVYGAFLDGQSLYEAPLPNFTEPAILVLGSEGRGISPEVAAEITDRLTIPASGLSVKGHTESLNVAIATAILCSEWRRRS”, “not failed”.
For “MLSEQALELIDIVARVGSFTAAANRLHKVPSAVSYAVKQIEEELGVVLFERHHRSVTLTPAGGHFVKQARNLLTQIDEMKRGTQRVANGWQPTLSIALDNIVRADRISVLIADFYRHFHDIELIIRIEVFNGVWEALATGHSDVAIGATTAIPVGGVFQYKDMGDIEWAFLVSKNHPLANIDRPLTDEELRPFPSICLEDTSREIPKRMTWLLENQRRLVVPDWIRAINCFREGLGIGYMPVHLASVFIKAGALVEKQLENPKLTSPCCLAWNADKMSPALAWVLDYLGDTDKLHREWLA”, the protein production entry is “failed”.
With “MLSKILKTSLCFIFMTCWVTTAQAFKGPLETPASMKLHATTSQLTAVTRNGNRLAAVGARGLVLLSDDNGKKWQQVAVPVSSNLVSVQFPVPDQGWAVGHDGVVLHSGDGGRTWSKQLDGNQVAKIMLKHYEKLAAEGDAAASKILPDIQRILQEGADKPFMDVWFLDEKEGFVAGAFNLIMHTTDAGKTWVPLFERTDNPKNLHIYALKGVGKEVYLAGEMGMLRRWDRASQRFVTIASPYKGTFFGLLAKDTTILAFGLRGNAFRSSDRGNTWRKLNTNTTAGLTGGTFLDDGRAVLVSQDGQVLVIDVGSETFVPAKVSSPMAFSSVAPAGKNGIVAVGSRGVITESLK” the entry was “failed”; with “MLSKRDAILKAAVEVFGKKGYDRATTDEIAEKAGVAKGLIFHYFKNKEELYYQAYMSVTEKLQKEFENFLMKNRNRDIFDFMERWIEKKLEYSASHPEEADFLITLVSVDEGLRKRILLDLEKSQRVFFDFVREKLKDLDLAEDVTEEIALKFLMWFFSGFEEVYLRTYQGKPELLKRDMNTLVEEVKVMLRILKKGMTK”, “not failed”; with “MLSKSKTTKALLYSTAALSLFAASHVHADETSHWTARSVDQIKADISVNDNQQTYTVQYGDTLGSIVEAMGIDMNVLANIKEITNIDLIFPGTVLTTTYNADNQAVSVKVETPSSETSDTPVVAESNLTTNEVTVNGQSVVASDLSAPVETVSLTATQAPAKEESTQVVSEVTEAIASASDTPAYADTEQPVADAIDHVTSSAEETLAEEEAPATETSAQAETTEVAATSEAASEAASEVPAEQLAAASEAPESSEAPAEQPAAAPESSEAPAEQPAATSEAASEAPASVVPVATSEAVSEAPAVSEVPAEQLAAASEAPESSEVPAEQPAAAPESSEAPAEQPAATSEAAPATSEAPAEQLAATSEAASTPNTYPVGQCTWGAKSLAPWAGNNWGNAKDWIASAQAAGHSVGTTPVAGAIAVWPNDGGGYGHVAYVTSASGVNSIQVMESNYAGNMLIGNYRGTFDPTSSAHGGSVYYIYP”, “failed”.
